# From paper PMC2575790
# Molecular target: GST–α-adaptin ear (UniProt P17427)
# Assay: pull-down
# Chain of GST–α-adaptin ear (P17427 whole entry): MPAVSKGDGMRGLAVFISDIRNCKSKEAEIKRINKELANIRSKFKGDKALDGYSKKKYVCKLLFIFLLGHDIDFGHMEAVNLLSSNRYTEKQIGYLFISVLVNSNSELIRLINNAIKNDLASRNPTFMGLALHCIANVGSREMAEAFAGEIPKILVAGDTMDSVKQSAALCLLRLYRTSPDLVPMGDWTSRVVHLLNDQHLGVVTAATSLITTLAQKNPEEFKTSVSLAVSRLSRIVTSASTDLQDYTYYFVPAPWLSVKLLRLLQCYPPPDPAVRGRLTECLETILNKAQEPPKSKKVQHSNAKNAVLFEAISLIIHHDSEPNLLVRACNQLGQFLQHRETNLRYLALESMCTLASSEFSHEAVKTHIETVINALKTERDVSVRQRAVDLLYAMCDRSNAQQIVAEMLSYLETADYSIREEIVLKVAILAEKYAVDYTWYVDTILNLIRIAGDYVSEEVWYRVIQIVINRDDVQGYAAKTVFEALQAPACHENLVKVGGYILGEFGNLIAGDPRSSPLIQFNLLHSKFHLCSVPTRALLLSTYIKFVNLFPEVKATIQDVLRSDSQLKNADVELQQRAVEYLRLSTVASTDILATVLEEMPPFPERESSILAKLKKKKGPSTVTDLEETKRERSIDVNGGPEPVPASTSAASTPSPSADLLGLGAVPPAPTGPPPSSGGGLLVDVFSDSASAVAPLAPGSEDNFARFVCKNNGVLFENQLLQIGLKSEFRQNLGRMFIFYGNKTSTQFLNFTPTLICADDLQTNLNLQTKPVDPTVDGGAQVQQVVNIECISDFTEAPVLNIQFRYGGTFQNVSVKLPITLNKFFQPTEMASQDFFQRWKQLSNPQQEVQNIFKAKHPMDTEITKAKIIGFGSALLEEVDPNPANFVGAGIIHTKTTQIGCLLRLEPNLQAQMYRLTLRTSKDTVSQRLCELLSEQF
# Chain of HA–hRME-6^wt (human RME-6, full length) (natural protein) (Q14C86 whole entry): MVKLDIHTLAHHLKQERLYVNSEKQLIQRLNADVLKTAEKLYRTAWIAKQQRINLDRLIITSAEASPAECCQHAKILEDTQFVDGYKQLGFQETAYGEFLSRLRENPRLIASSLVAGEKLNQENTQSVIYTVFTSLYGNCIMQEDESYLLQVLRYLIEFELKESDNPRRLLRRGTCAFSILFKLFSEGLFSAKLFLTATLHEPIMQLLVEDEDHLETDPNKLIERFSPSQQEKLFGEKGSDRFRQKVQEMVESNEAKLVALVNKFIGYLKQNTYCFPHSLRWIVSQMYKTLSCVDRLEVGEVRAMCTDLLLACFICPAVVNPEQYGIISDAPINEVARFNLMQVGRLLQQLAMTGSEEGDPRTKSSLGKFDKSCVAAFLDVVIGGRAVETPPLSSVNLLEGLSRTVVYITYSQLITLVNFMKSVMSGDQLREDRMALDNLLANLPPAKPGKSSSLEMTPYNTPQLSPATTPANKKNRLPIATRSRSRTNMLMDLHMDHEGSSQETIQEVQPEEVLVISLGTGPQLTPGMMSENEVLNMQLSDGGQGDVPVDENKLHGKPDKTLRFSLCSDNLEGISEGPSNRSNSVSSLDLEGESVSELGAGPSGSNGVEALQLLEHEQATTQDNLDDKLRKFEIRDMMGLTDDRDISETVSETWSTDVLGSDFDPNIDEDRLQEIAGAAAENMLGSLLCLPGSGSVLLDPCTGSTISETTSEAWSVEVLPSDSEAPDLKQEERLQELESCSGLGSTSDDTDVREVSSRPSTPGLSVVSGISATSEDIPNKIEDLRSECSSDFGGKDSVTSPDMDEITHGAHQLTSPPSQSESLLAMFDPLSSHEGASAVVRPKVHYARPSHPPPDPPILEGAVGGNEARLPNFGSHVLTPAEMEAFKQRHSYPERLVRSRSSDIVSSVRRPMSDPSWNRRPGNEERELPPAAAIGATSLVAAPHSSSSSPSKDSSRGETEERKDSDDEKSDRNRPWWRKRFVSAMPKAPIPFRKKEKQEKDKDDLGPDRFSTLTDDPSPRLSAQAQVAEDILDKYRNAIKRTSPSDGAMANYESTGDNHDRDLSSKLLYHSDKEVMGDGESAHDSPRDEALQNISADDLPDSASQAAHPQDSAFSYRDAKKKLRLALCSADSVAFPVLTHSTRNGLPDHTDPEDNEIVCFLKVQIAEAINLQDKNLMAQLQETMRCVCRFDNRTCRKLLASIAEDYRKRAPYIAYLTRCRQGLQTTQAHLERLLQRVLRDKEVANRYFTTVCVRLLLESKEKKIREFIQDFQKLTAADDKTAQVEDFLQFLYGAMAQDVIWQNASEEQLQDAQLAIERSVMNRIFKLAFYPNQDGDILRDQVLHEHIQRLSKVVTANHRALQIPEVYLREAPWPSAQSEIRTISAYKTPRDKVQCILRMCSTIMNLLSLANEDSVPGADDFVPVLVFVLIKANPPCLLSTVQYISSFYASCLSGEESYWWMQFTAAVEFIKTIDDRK
Substance,fold reduction of binding against hRME-6^wt,fold reduction of binding against hRME-6 from mock-treated cytosol
HA–hRME-6^F1487A (natural protein),5 fold,–
"HA–hRME-6^wt (human RME-6, full length) (natural protein)",–,> 2 fold
